From paper PMC2994906 (PLoS ONE, 2010) come the findings set out here.

What all share (details): both partners purified
The target of test [1] is T1, hRARα/mRXRα LBD heterodimer (human | mouse, UniProt P10276 153-421; P28700 228-467).
T1 construct: Heterodimer formed beforehand; small-molecule ligands (atRA, LG100754, AM580, BMS614, BMS649, 9-cisRA, HX531) differ between experiments and are named in the assays; also called RARα/RXRα LBD; RAR/RXR; not shown: His6, N-terminal, kept; copies: 1 + 1
T1 sequence (looked up) 1: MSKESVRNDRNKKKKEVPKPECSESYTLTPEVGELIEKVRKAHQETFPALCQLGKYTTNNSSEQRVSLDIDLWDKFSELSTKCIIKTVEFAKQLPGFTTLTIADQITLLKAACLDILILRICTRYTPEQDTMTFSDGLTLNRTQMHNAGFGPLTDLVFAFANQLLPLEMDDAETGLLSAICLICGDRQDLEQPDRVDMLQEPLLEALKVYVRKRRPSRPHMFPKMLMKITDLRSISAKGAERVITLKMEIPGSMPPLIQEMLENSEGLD
T1 sequence (looked up) 2: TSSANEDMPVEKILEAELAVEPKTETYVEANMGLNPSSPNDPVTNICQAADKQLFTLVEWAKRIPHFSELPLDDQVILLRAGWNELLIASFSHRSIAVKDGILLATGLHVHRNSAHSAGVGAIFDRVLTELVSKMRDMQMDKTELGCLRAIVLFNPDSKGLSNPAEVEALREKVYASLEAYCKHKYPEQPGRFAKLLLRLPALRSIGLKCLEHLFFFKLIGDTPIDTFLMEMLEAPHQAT
Kind of test: fluorescence polarisation; fluorescence anisotropy; hRARα/mRXRα LBDs added to 1 µM TAMRA-SRC-1 NR2 peptide; 20°C; 10 mM TRIS-HCl pH 7.5, 150 mM NaCl, 10 mM DTT; apparent; RAR ligand AM580, RXR ligand BMS649; two sites, fit gave k2 identical to k1. In general terms: Fluorescence polarisation rises when a labelled molecule tumbles more slowly, as on binding a larger partner.

Test [2] has as its target T1, hRARα/mRXRα LBD heterodimer. Kind of test: fluorescence polarisation; fluorescence anisotropy; hRARα/mRXRα LBDs added to 1 µM TAMRA-SRC-1 NR2 peptide; 20°C; 10 mM TRIS-HCl pH 7.5, 150 mM NaCl, 10 mM DTT; apparent; RAR ligand AM580, RXR apo.
For test [3] the target is unchanged. As to the kind of experiment: fluorescence polarisation; fluorescence anisotropy; hRARα/mRXRα LBDs added to 1 µM TAMRA-SRC-1 NR2 peptide; 20°C; 10 mM TRIS-HCl pH 7.5, 150 mM NaCl, 10 mM DTT; apparent; RAR apo, RXR ligand BMS649.
Test [4] shares this target. Kind of test: fluorescence polarisation; fluorescence anisotropy; hRARα/mRXRα LBDs added to a fixed concentration of TAMRA-SRC-1 NR2 peptide; 20°C; 10 mM TRIS-HCl pH 7.5, 150 mM NaCl, 10 mM DTT; apparent; RAR apo, RXR apo.
Test [5] shares this target. As to the kind of experiment: fluorescence polarisation; fluorescence anisotropy; hRARα/mRXRα LBDs added to a fixed concentration of TAMRA-SRC-1 NR2 peptide; 20°C; 10 mM TRIS-HCl pH 7.5, 150 mM NaCl, 10 mM DTT; apparent; RAR apo, RXR ligand LG100754.
For test [6] the target is unchanged. Kind of test: fluorescence polarisation; fluorescence anisotropy; hRARα/mRXRα LBDs added to 1 µM TAMRA-SRC-1 NR2 peptide; 20°C; 10 mM TRIS-HCl pH 7.5, 150 mM NaCl, 10 mM DTT; apparent; 9-cisRA on RAR and RXR; two sites, fit gave k2 identical to k1.
Test [7] has the same target. As to the kind of experiment: fluorescence polarisation; fluorescence anisotropy; hRARα/mRXRα LBDs added to 1 µM TAMRA-SRC-1 NR2 peptide; 20°C; 10 mM TRIS-HCl pH 7.5, 150 mM NaCl, 10 mM DTT; apparent; RAR ligand AM580, RXR ligand LG100754.
Test [8] shares this target. Kind of test: fluorescence polarisation; fluorescence anisotropy; hRARα/mRXRα LBDs added to 1 µM TAMRA-SRC-1 NR2 peptide; 20°C; 10 mM TRIS-HCl pH 7.5, 150 mM NaCl, 10 mM DTT; apparent; RAR ligand BMS614, RXR ligand BMS649.
Test [9] has the same target. Kind of test: fluorescence polarisation; fluorescence anisotropy; hRARα/mRXRα LBDs added to a fixed concentration of TAMRA-SRC-1 NR2 peptide; 20°C; 10 mM TRIS-HCl pH 7.5, 150 mM NaCl, 10 mM DTT; apparent; RAR ligand BMS614, RXR ligand LG100754.
For test [10], the target named is T2, human RARα LBD (residues 153-421) (human, UniProt P10276 153-421).
T2 construct: Cloned in pET15b; The purification of RARα alone is not described; also called hRARα LBD; RARα monomer; source: E. coli BL21 (DE3), purified
T2 sequence (looked up): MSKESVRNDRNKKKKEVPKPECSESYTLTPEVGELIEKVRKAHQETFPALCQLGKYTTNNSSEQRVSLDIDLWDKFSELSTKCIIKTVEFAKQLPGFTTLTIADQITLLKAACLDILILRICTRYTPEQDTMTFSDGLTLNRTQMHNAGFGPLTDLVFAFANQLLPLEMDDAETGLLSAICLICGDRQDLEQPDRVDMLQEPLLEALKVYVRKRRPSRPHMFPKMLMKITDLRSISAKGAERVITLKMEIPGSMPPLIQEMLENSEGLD
Kind of test: ITC; SRC-1 NR2 peptide (1.3 mM) injected into 20-50 µM RAR with an RAR agonist in fivefold molar excess (agonist not named); 30°C; 20 mM Tris pH 8.0, 200 mM NaCl, 2% ethanol. In general terms: ITC needs no label: the signal is the heat of the interaction.

In test [11] the target is T2, human RARα LBD (residues 153-421). As to the kind of experiment: ITC; SRC-1 NR2 peptide (1.3 mM) injected into 20-50 µM RAR or RAR/RXR with LG100754 in fivefold molar excess; 30°C; 20 mM Tris pH 8.0, 200 mM NaCl, 2% ethanol.
Test [12] concerns the target T3, hRARα/mRXRα LBD heterodimer (human | mouse, UniProt P10276 153-421; P28700 228-467).
T3 construct: RARα in pET15b (His-tagged), RXRα in pET3a (no tag named); The heterodimer was formed beforehand by copurification; also called RAR/RXR; RARα/RXRα LBD; copies: 1 + 1
T3 sequence (looked up) 1: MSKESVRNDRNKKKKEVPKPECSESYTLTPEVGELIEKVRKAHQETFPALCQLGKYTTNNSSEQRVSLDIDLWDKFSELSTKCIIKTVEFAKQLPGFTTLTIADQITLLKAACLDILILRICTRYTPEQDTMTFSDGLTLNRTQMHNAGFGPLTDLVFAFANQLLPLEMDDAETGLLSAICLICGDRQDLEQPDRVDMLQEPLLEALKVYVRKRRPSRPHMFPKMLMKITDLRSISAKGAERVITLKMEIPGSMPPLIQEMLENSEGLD
T3 sequence (looked up) 2: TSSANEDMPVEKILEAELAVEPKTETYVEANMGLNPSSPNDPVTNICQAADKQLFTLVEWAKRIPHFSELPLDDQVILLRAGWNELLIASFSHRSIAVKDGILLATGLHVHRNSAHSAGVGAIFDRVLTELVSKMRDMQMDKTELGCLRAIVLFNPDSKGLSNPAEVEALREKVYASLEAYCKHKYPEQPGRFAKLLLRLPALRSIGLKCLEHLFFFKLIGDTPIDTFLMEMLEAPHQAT
Described as above.

Test [13] addresses T2, human RARα LBD (residues 153-421). Kind of test: ITC; SRC-1 NR2 peptide (1.3 mM) injected into 20-50 µM RAR without ligand (apo); 30°C; 20 mM Tris pH 8.0, 200 mM NaCl, 2% ethanol.

No end group written: not given here. A value given as a limit tells only on which side of the number the result lay.

B1: TAMRA-labeled SRC-1 NR2 peptide (686-RHKILHRLLQEGS-698) (peptide)
peptide: RHKILHRLLQEGS
modifications: also: TAMRA label, position not given here
notes: also called (TAMRA) – SRC-1 NR2 peptide; source: bought: Neosystem (Strasbourg, France)
Regarding B1, the Kd in test [1] came to 290 ± 20 nM; in [2], 190 ± 20 nM; in test [3] it was 420 ± 30 nM; in [4] it was 2000 ± 100 nM; in [5] it was 2500 ± 100 nM; in [6], 610 ± 20 nM. In addition, the figures for the Kd in test [7], in test [8] and in test [9] were 170 ± 10 nM, 450 ± 40 nM and greater than 10000 nM, respectively.

B2: SRC-1 NR2 peptide (676-[residues removed]-700) (peptide)
peptide: CPSSHSSLTERHKILHRLLQEGSPS
notes: The unlabelled 25-residue peptide used in ITC and ESI-MS; It is not the 13-residue TAMRA-labelled peptide of the anisotropy titrations
As for B2, the Kd in test [10] was 1400 ± 100 nM; in test [11], 1600 ± 200 nM; in test [12] it was 4500 ± 600 nM; in test [13], 9000 ± 400 nM.
